# Data published in patent publication US20180044374A1.
# Where “and” joins values, the source holds several entries; their conditions need not be identical. Equal entries are not always repeated.
# How the values were obtained:
# [1] = biological target: human polyclonal IgG (Gammanorm) (human); test: dynamic binding capacity; matrix A38, ligand 7.5 mg/ml
# [2] = biological target: human polyclonal IgG (Gammanorm) (human); test: dynamic binding capacity; matrix A27, ligand […]
# [3] = biological target: human polyclonal IgG (Gammanorm) (human); test: dynamic binding capacity; matrix B5, ligand 6.3 mg/ml
# [4] = biological target: human polyclonal IgG (Gammanorm) (human); test: dynamic binding capacity; matrix C4, ligand […]
# [5] = biological target: human polyclonal IgG (Gammanorm) (human); test: dynamic binding capacity; matrix C3, ligand 9.0 mg/ml
# [6] = biological target: human polyclonal IgG (Gammanorm) (human); test: dynamic binding capacity; matrix A20, ligand 7.3 mg/ml
# [7] = biological target: human polyclonal IgG (Gammanorm) (human); test: dynamic binding capacity; matrix H40, ligand […]
# [8] = biological target: human polyclonal IgG (Gammanorm) (human); test: dynamic binding capacity; matrix C2, ligand 10.5 mg/ml
# [9] = biological target: human polyclonal IgG (Gammanorm) (human); test: dynamic binding capacity; matrix A65b, ligand […]
# [10] = biological target: human polyclonal IgG (Gammanorm) (human); test: dynamic binding capacity; matrix A40, ligand 13.2 mg/ml
# [11] = biological target: human polyclonal IgG (Gammanorm) (human); test: dynamic binding capacity; matrix A18, ligand 13.4 mg/ml
# [12] = biological target: human polyclonal IgG (Gammanorm) (human); test: dynamic binding capacity; matrix A28, ligand 15.8 mg/ml
# [13] = biological target: human polyclonal IgG (Gammanorm) (human); test: dynamic binding capacity; matrix A42, ligand […]
# [14] = biological target: human polyclonal IgG (Gammanorm) (human); test: dynamic binding capacity; matrix A28, ligand 11.9 mg/ml
# [15] = biological target: human polyclonal IgG (Gammanorm) (human); test: dynamic binding capacity; matrix A38, ligand 7.45 mg/ml
# [16] = biological target: human polyclonal IgG (Gammanorm) (human); test: dynamic binding capacity; matrix A62a, ligand 6.6 mg/ml
# [17] = biological target: human polyclonal IgG (Gammanorm) (human); test: dynamic binding capacity; matrix A28, ligand 7.9 mg/ml
# [18] = biological target: human polyclonal IgG (Gammanorm) (human); test: dynamic binding capacity; matrix A41, ligand 5.0 mg/ml
# [19] = biological target: human polyclonal IgG (Gammanorm) (human); test: dynamic binding capacity; matrix A33, ligand 7.3 mg/ml
# [20] = biological target: human polyclonal IgG (Gammanorm) (human); test: dynamic binding capacity; matrix A63a, ligand 6.6 mg/ml
# [21] = biological target: human polyclonal IgG (Gammanorm) (human); test: dynamic binding capacity; matrix A63a, ligand 14.0 mg/ml
# [22] = biological target: human polyclonal IgG (Gammanorm) (human); test: dynamic binding capacity; matrix A29, ligand 11 mg/ml
# [23] = biological target: human polyclonal IgG (Gammanorm) (human); test: dynamic binding capacity; matrix C1, ligand 10.8 mg/ml
# [24] = biological target: human polyclonal IgG (Gammanorm) (human); test: dynamic binding capacity; matrix A63a, ligand 6.1 mg/ml
# [25] = biological target: human polyclonal IgG (Gammanorm) (human); test: dynamic binding capacity; matrix A43, ligand 6.99 mg/ml
# [26] = biological target: human polyclonal IgG (Gammanorm) (human); test: dynamic binding capacity; matrix A29, ligand 7.3 mg/ml
# [27] = biological target: human polyclonal IgG (Gammanorm) (human); test: dynamic binding capacity; matrix A20, ligand 10.6 mg/ml
# [28] = biological target: human polyclonal IgG (Gammanorm) (human); test: dynamic binding capacity; matrix C3, ligand […]; conditions: ligand content 5.9 mg/ml
# [29] = biological target: human polyclonal IgG (Gammanorm) (human); test: dynamic binding capacity; matrix A39, ligand 7.0 mg/ml
# [30] = biological target: human polyclonal IgG (Gammanorm) (human); test: dynamic binding capacity; matrix H40, ligand 9.1 mg/ml
# [31] = biological target: human polyclonal IgG (Gammanorm) (human); test: dynamic binding capacity; matrix A62a, ligand 7.5 mg/ml
# [32] = biological target: human polyclonal IgG (Gammanorm) (human); test: dynamic binding capacity; matrix A40, ligand 11.0 mg/ml
substance,measurement,setting,value
"Zvar(Q9A, N11E, Q40V, A42K, N43A, L44I)4 (designed binder)",Qb10% 2.4 min,[1],44 mg/mL
same,Qb10% 6 min,[1],58 mg/mL
same,Qb10% 2.4 min,[2],24.8 mg/mL
same,Qb10% 6 min,[2],55.6 mg/mL
same,Qb10% 2.4 min,[3],32 mg/mL
same,Qb10% 6 min,[3],38 mg/mL
same,Qb10% 2.4 min,[4],59 mg/mL
same,Qb10% 6 min,[4],67 mg/mL
same,Qb10% 2.4 min,[5],49 mg/mL
same,Qb10% 6 min,[5],62 mg/mL
same,Qb10% 2.4 min,[6],45 mg/mL and 45.1 mg/mL
same,Qb10% 6 min,[6],57 mg/mL and 57.2 mg/mL
same,Qb10% 2.4 min,[7],47 mg/mL
same,Qb10% 6 min,[7],52 mg/mL
same,Qb10% 2.4 min,[8],42 mg/mL
same,Qb10% 6 min,[8],57 mg/mL
same,Qb10% 2.4 min,[9],42 mg/mL
same,Qb10% 6 min,[9],46 mg/mL
same,Qb10% 2.4 min,[10],57 mg/mL
same,Qb10% 6 min,[10],71 mg/mL
same,Qb10% 6 min,[11],63 mg/mL
same,Qb10% 2.4 min,[12],37 mg/mL
same,Qb10% 6 min,[12],67 mg/mL
same,Qb10% 2.4 min,[13],32.2 mg/mL
same,Qb10% 6 min,[13],57.8 mg/mL
same,Qb10% 2.4 min,[14],39.9 mg/mL and 40 mg/mL
same,Qb10% 6 min,[14],63.8 mg/mL and 64 mg/mL
same,Qb10% 2.4 min,[15],44.4 mg/mL
same,Qb10% 6 min,[15],58.2 mg/mL
same,Qb10% 2.4 min,[16],41 mg/mL
same,Qb10% 6 min,[16],46 mg/mL
same,Qb10% 2.4 min,[17],42.4 mg/mL and 42 mg/mL
same,Qb10% 6 min,[17],58.2 mg/mL and 58 mg/mL
same,Qb10% 2.4 min,[18],35.6 mg/mL
same,Qb10% 6 min,[18],46 mg/mL
same,Qb10% 2.4 min,[19],49 mg/mL
same,Qb10% 6 min,[19],56 mg/mL
same,Qb10% 2.4 min,[20],40 mg/mL
same,Qb10% 6 min,[20],44 mg/mL
same,Qb10% 2.4 min,[21],48 mg/mL
same,Qb10% 6 min,[21],56 mg/mL
same,Qb10% 2.4 min,[22],34.9 mg/mL
same,Qb10% 6 min,[22],64.7 mg/mL
same,Qb10% 2.4 min,[23],43 mg/mL
same,Qb10% 6 min,[23],60 mg/mL
same,Qb10% 2.4 min,[24],39 mg/mL
same,Qb10% 6 min,[24],44 mg/mL
same,Qb10% 2.4 min,[25],33.4 mg/mL
same,Qb10% 6 min,[25],49.8 mg/mL
same,Qb10% 2.4 min,[26],36.3 mg/mL
same,Qb10% 6 min,[26],51.8 mg/mL
same,Qb10% 2.4 min,[27],50.7 mg/mL and 51 mg/mL
same,Qb10% 6 min,[27],70.1 mg/mL and 70 mg/mL
same,Qb10% 2.4 min,[28],44 mg/mL
same,Qb10% 6 min,[28],52 mg/mL
same,Qb10% 2.4 min,[29],42 mg/mL
same,Qb10% 6 min,[29],55 mg/mL
same,Qb10% 2.4 min,[30],52 mg/mL
same,Qb10% 6 min,[30],67 mg/mL
same,Qb10% 2.4 min,[31],47 mg/mL
same,Qb10% 6 min,[31],56 mg/mL
same,Qb10% 2.4 min,[32],55 mg/mL
same,Qb10% 6 min,[32],74 mg/mL
